Measurements published in the Immune Epitope Database (IEDB).
Values belong to the sequence of their own block, whether it stands above or below them.

Columns and labels:
HLA-C*05:01 = assay: IEDB peptide-MHC binding, purified MHC/direct/fluorescence; filed as Kd, often an IC50 or EC50 that approximates it; ≥ and ≤ were set here for values at or beyond the usual limits of such assays
HLA-C*12:03 = assay: as above; conditions: source organism: human gammaherpesvirus 4
HLA-B*27:20 = assay: IEDB peptide-MHC binding, purified MHC/competitive/fluorescence; filed as Kd, often an IC50 or EC50 that approximates it; ≥ and ≤ were set here for values at or beyond the usual limits of such assays; conditions: source organism: human gammaherpesvirus 4
HLA-B*15:42 = assay: as above; conditions: source organism: human gammaherpesvirus 4
HLA-B*45:06 = assay: as above; conditions: source organism: human gammaherpesvirus 4
HLA-C*14:02 = assay: as above; conditions: source organism: human gammaherpesvirus 4
HLA-C*06:02 = assay: as above; conditions: source organism: human gammaherpesvirus 4
HLA-B*40:13 = assay: as above; conditions: source organism: human gammaherpesvirus 4
HLA-A*32:15 = assay: as above; conditions: source organism: human gammaherpesvirus 4
HLA-B*83:01 = assay: as above; conditions: source organism: human gammaherpesvirus 4
HLA-A*68:23 = assay: as above; conditions: source organism: human gammaherpesvirus 4
HLA-B*48:01 [1] = assay: as above; conditions: source organism: Yersinia pestis Nepal516
HLA-C*04:01 = assay: IEDB peptide-MHC binding, purified MHC/direct/fluorescence; filed as Kd, often an IC50 or EC50 that approximates it; ≥ and ≤ were set here for values at or beyond the usual limits of such assays; conditions: source organism: Rickettsia sibirica 246
HLA-B*07:02 [2] = assay: as above
HLA-B*15:01 [3] = assay: as above
HLA-B*51:01 [4] = assay: as above; conditions: source organism: Rickettsia conorii
HLA-B*58:01 [5] = assay: IEDB peptide-MHC binding, purified MHC/competitive/fluorescence; ≥ and ≤ were set here for values at or beyond the usual limits of such assays; conditions: source organism: Homo sapiens
HLA-B*51:01 [6] = assay: as above; conditions: source organism: Homo sapiens
HLA-A*03:01 [7] = assay: IEDB peptide-MHC binding, purified MHC/competitive/fluorescence; filed as Kd, often an IC50 or EC50 that approximates it; ≥ and ≤ were set here for values at or beyond the usual limits of such assays; conditions: source organism: Escherichia coli O139:H28 str. E24377A
HLA-B*57:01 [8] = assay: as above; conditions: source organism: Escherichia coli O139:H28 str. E24377A
HLA-B*27:03 = assay: as above; conditions: source organism: Escherichia coli O139:H28 str. E24377A
HLA-B*39:01 = assay: as above; conditions: source organism: Escherichia coli O139:H28 str. E24377A
HLA-A*26:01 = assay: as above; conditions: source organism: Escherichia coli O139:H28 str. E24377A
HLA-A*80:01 = assay: as above; conditions: source organism: Escherichia coli O139:H28 str. E24377A
HLA-B*18:01 [9] = assay: as above; conditions: source organism: Escherichia coli O139:H28 str. E24377A
HLA-A*29:02 = assay: as above; conditions: source organism: Escherichia coli O139:H28 str. E24377A
HLA-B*15:01 [10] = assay: as above
HLA-B*15:17 = assay: as above
HLA-A*02:01 = assay: as above
HLA-A*25:01 = assay: as above; conditions: source organism: Escherichia coli O139:H28 str. E24377A
HLA-A*02:12 = assay: as above; conditions: source organism: Escherichia coli O139:H28 str. E24377A
HLA-B*51:01 [11] = assay: as above
HLA-B*08:01 = assay: as above; conditions: source organism: Escherichia coli 536
HLA-B*07:02 [12] = assay: as above; conditions: source organism: Escherichia coli 536
HLA-A*03:01 [13] = assay: IEDB peptide-MHC binding, purified MHC/direct/fluorescence; filed as Kd, often an IC50 or EC50 that approximates it; ≥ and ≤ were set here for values at or beyond the usual limits of such assays; conditions: source organism: Camelpox virus CMS
HLA-B*57:01 [14] = assay: as above; conditions: source organism: Camelpox virus CMS
HLA-A*31:01 = assay: as above; conditions: source organism: Camelpox virus CMS
HLA-B*40:01 = assay: as above; conditions: source organism: Camelpox virus CMS
HLA-B*48:01 [15] = assay: as above; conditions: source organism: Camelpox virus CMS
HLA-B*58:01 [16] = assay: as above; conditions: source organism: Camelpox virus CMS
HLA-A*01:01 = assay: as above; conditions: source organism: Camelpox virus CMS
HLA-B*46:01 = assay: as above; conditions: source organism: Camelpox virus CMS
HLA-B*18:01 [17] = assay: as above; conditions: source organism: Camelpox virus CMS
HLA-A*11:01 = assay: as above; conditions: source organism: Camelpox virus CMS
HLA-B*27:05 = assay: as above; conditions: source organism: Camelpox virus CMS
HLA-A*69:01 = assay: as above; conditions: source organism: Camelpox virus CMS
HLA-A*26:03 = assay: IEDB peptide-MHC binding, purified MHC/competitive/fluorescence; filed as Kd, often an IC50 or EC50 that approximates it; ≥ and ≤ were set here for values at or beyond the usual limits of such assays; conditions: source organism: Variola virus
HLA-A*68:02 = assay: as above; conditions: source organism: Variola virus
[18] = source organism: Rickettsia sibirica 246
[19] = source organism: Escherichia coli O139:H28 str. E24377A
[20] = source organism: Escherichia coli 536
[21] = source organism: Camelpox virus CMS

Sequence: YAMAIRQAI
Kd (HLA-C*05:01; source organism: human gammaherpesvirus 4): 2.23 µM
Kd (HLA-C*12:03): ≤ 0.001 µM
Kd (HLA-B*27:20): 0.0299 µM
Kd (HLA-B*15:42): ≥ 5 µM
Kd (HLA-B*45:06): ≥ 5 µM
Kd (HLA-C*14:02): 0.0426 µM
Kd (HLA-C*06:02): 0.101 µM
Kd (HLA-B*40:13): 0.0239 µM
Kd (HLA-A*32:15): 0.092 µM
Kd (HLA-B*83:01): 1.02 µM
Kd (HLA-A*68:23): 0.19 µM

Sequence: RMAMIPRTL
Kd (HLA-B*48:01 [1]): 0.0873 µM

Sequence: FADSDNIAM
Kd (HLA-C*04:01): ≥ 20 µM
Kd (HLA-C*05:01; [18]): ≤ 0.001 µM
Kd (HLA-B*07:02 [2]; source organism: Rickettsia conorii): ≥ 20 µM
Kd (HLA-B*15:01 [3]; [18]): ≥ 20 µM
Kd (HLA-B*51:01 [4]): ≥ 20 µM

IC50 (HLA-B*58:01 [5]): 0.987 µM
IC50 (HLA-B*51:01 [6]): 1.52 µM
Sequence: MASSPTSI

Sequence: SIPFGLMSA
Kd (HLA-A*03:01 [7]): ≥ 20 µM
Kd (HLA-B*57:01 [8]): ≥ 20 µM
Kd (HLA-B*27:03): ≥ 20 µM
Kd (HLA-B*39:01): ≥ 20 µM
Kd (HLA-A*26:01): ≥ 20 µM
Kd (HLA-A*80:01): ≥ 20 µM
Kd (HLA-B*18:01 [9]): ≥ 20 µM
Kd (HLA-A*29:02): ≥ 20 µM
Kd (HLA-B*15:01 [10]; [19]): ≥ 20 µM
Kd (HLA-B*15:17; [19]): ≥ 20 µM
Kd (HLA-A*02:01; [19]): ≥ 20 µM
Kd (HLA-A*25:01): ≥ 20 µM
Kd (HLA-A*02:12): 0.881 µM
Kd (HLA-B*51:01 [11]; [19]): ≥ 20 µM

Kd (HLA-B*08:01): ≥ 20 µM
Kd (HLA-B*07:02 [12]): 0.0512 µM
Kd (HLA-B*15:01 [10]; [20]): ≥ 20 µM
Kd (HLA-B*51:01 [11]; [20]): 3.66 µM
Sequence: SPLHVFVAV

Sequence: RVFDKADGK
Kd (HLA-A*03:01 [13]): 0.0788 µM
Kd (HLA-B*57:01 [14]): ≥ 20 µM
Kd (HLA-A*31:01): 0.0997 µM
Kd (HLA-B*40:01): ≥ 20 µM
Kd (HLA-B*48:01 [15]): ≥ 20 µM
Kd (HLA-B*07:02 [2]; [21]): ≥ 20 µM
Kd (HLA-B*58:01 [16]): ≥ 20 µM
Kd (HLA-A*01:01): ≥ 20 µM
Kd (HLA-B*46:01): ≥ 20 µM
Kd (HLA-B*18:01 [17]): ≥ 20 µM
Kd (HLA-A*11:01): 0.127 µM
Kd (HLA-B*27:05): ≥ 20 µM
Kd (HLA-B*15:01 [3]; [21]): ≥ 20 µM
Kd (HLA-A*69:01): ≥ 20 µM
Kd (HLA-B*15:17; source organism: Variola virus): ≥ 20 µM
Kd (HLA-A*02:01; source organism: Variola virus): 1.05 µM
Kd (HLA-A*26:03): ≥ 20 µM
Kd (HLA-A*68:02): ≥ 20 µM
